Laboratory results reported in patent US9539338B2, “Polymer-based protein engineering methods to rationally tune enzyme activity, pH-dependence and stability” (Carnegie Mellon University, priority 2013, dated 2017).

Key:
[1] = molecular target: T1, Bowman-Birk trypsin-chymotrypsin inhibitor from glycine max (GM) (Glycine max, UniProt P01055); experiment: Inhibitor binding study with Bowman-Birk inhibitor from glycine max; type: biochemical, glycine max (soybean); conditions: for Apparent Vmax / KM/Vmax: pH 8.0
T1 construct: purchased Sigma Aldrich; bovine pancreas for chymotrypsin
Description: FIGS. 24A and B show (A) Substrate/initial velocity plots and (B) secondary plots to determine inhibitor constant for native chymotrypsin with GM in 0.1 M sodium phosphate buffer (pH 8) at 25° C. […]
FIGS. 25A and B show (A) Substrate/initial velocity plots and (B) secondary plots to determine inhibitor constant for chyomtrypsin-pQA200 with GM in 0.1 M sodium phosphate buffer (pH 8) at 25° C. […]
(§1) Enzyme inhibition was assayed by measuring the hydrolytic activities of samples which contained a fixed concentration of protease and varying amounts of inhibitor, including a blank with no inhibitor. Inhibitors and peptide substrate were simultaneously added to the native and conjugate solutions immediately before measuring initial rates. The initial rate of hydrolysis of the peptide substrate was monitored by recording the increase in absorption at 412 nm. To determine dissociation constant of the enzyme-inhibitor complexes (Ki), Vmax app and KM app were determined by non-linear curve fitting (equation for Michaelis-Menten parameters) of plots of initial rate versus substrate concentration using the Enzfitter software. The dissociation constants were calculated from secondary plot of KM app/Vmax app versus initial inhibitor concentration.

Suc-AAPF-pNA = molecular target: T2, Suc-AAPF-pNA (Bos taurus, UniProt P00766); experiment: Enzyme kinetic assay: hydrolysis of Suc-AAPF-pNA at pH 5-10 (native CT, CT-PDMAEMA conjugates); type: biochemical
T2 construct: purchased Sigma Aldrich; host or cells: bovine pancreas
Description: N-Succinyl-Ala-Ala-Pro-Phe p-nitroanilide (0 to 50 μL of 9.60 mM in DMSO) was added to sodium phosphate buffer (990 to 940 μL of 100 mM, pH 5-10). Native CT or conjugates solution (10 μL of 4.0 μM) was added to the substrate solution. The initial rate of hydrolysis of the peptide substrate was monitored by recording the increase in absorption at 412 nm using a UV-VIS spectrometer. The Michaelis-Menten parameters (kcat, Km and kcat/Km) were determined by non-linear curve fitting (equation for Michaelis-Menten parameters) of plots of initial rate versus substrate concentration using the Enzfitter software.

[2] = In vitro gastric acid stability, 167 mM HCl, 37° C.; type: physicochemical; conditions: 167 mM HCl (pH 1), 3 hours
Description: Native CT and CT-conjugates were incubated at 4 μM in 167 mM HCl at 37° C. in 50 μL aliquots. Aliquots were removed at specified time points and residual activity was measured at 25° C. in 0.1 M sodium phosphate buffer (pH 8.0) with Suc-AAPF-pNA as substrate (288 μM). Each time point was measured in duplicate and residual activity was calculated as the ratio of activity remaining from time zero.

aprotinin (AP) = molecular target: T3, aprotinin (AP) (Bos taurus, UniProt P00974); experiment: Inhibitor binding study with aprotinin; type: biochemical, Bovine; conditions: 25° C.; for Apparent Vmax / KM/Vmax: pH 8.0
T3 construct: purchased Sigma Aldrich; host or cells: Nicotiana (tobacco) for aprotinin; bovine pancreas for chymotrypsin
Description: Apparent KM and Vmax values were calculated using EnzFitter by Michelis-Menten curve fitting of substrate against initial velocity plots. (B) Secondary plots with calculated apparent KM and Vmax values were used to determine inhibition constants of aprotinin towards native chymotrypsin.
FIGS. 23A and B show (A) Substrate/initial velocity plots and (B) secondary plots to determine inhibitor constant for chymotrypsin-pQA200 with aprotinin in 0.1 M sodium phosphate buffer (pH 8) at 25° C. The procedure used was the same as described above for aprotinin and native chymotrypsin.
as §1

pepsin = molecular target: T4, pepsin (Sus scrofa, UniProt P00791); experiment: Stability to pepsin degradation; type: in vitro ADME, porcine; conditions: 167 mM HCl, 37° C.
T4 construct: purchased Sigma Aldrich; host or cells: porcine stomach mucosa
T4 sequence (P00791 60-385): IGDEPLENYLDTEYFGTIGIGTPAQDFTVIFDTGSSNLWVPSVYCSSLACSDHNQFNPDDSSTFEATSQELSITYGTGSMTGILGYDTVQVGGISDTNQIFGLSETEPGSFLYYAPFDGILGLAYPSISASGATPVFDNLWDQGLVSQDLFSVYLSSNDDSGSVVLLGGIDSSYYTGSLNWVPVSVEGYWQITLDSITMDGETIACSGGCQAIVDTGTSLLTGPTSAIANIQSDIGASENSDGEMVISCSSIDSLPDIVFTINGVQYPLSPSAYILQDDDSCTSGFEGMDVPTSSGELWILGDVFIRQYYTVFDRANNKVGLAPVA
Description: Native CT and CT-conjugates (4 μM) were incubated in 167 mM HCl with 16 nM pepsin at 37° C. in 50 μL aliquots. Samples were retrieved at specified time points and residual activity was measured in 0.1 M sodium phosphate buffer (pH 8.0) at 25° C. with Suc-AAPF-pNA as substrate (288 μM). Each time point was measured in duplicate and residual activity was calculated as the ratio of activity remaining from time zero. As a control, pepsin (16 nM) bioactivity towards Suc-AAPF-pNA was measured at pH 8.0 and no product formation was observed.

[3] = Stability study: irreversible inactivation at 40° C., pH 7-9, residual activity; type: physicochemical; conditions: for half-life t1/2: 40 μM enzyme
Description: Native CT and the prepared conjugates (1.5 to 2.0 mL of 40.0 μM) were incubated in 100 mM sodium phosphate buffer at different pH's at 40° C. Aliquots (20 μL) were removed and added into sodium phosphate buffer (180 μL, 100 mM, at 0° C.). The residual activity was calculated as a ratio of initial rates of hydrolysis reaction at given incubation time over the initial activity, which monitored spectrophotometrically as described above. Half-lives for enzyme longevity were estimated by non-linear curve fitting (equation for single exponential decay) using Enzfitter.
CT inactivation can occur through unfolding and/or autolysis. The polymer component of the PBPE conjugates may stabilize the enzyme by increasing the energy needed to unfold the protein and also by inhibiting autolysis directly. Since the autolysis reaction of proteases is favored when the enzyme concentration is high, (Yang, Z.; Domach, M.; Auger, R.; Yang, F. X.; Russell, A. J. Enzyme Microb. Technol. 1996, 18, 82-89) stability at relatively high enzyme concentration (40 μM) was investigated. At 40° C. the residual activity of the enzyme was measured as a function of pH and shown in FIG. 8, and the first order rate constant for deactivation and half-life were calculated (Table 5).

[4] = pH 5.0, 100 mM sodium phosphate
[5] = pH 6.0, 100 mM sodium phosphate
[6] = pH 7.0, 100 mM sodium phosphate
[7] = pH 8.0, 100 mM sodium phosphate
[8] = pH 9.0, 100 mM sodium phosphate
[9] = pH 10.0, 100 mM sodium phosphate

## α-Chymotrypsin (CT) from bovine pancreas (type II) [Native CT]
[1]; GM
  GM Ki, fold higher than chymotrypsin-pQA198: ~4 fold
[1]; GM [I]0 0 mM, 25° C.
  Apparent Vmax: 1.10 mM/s
[1]; GM [I]0 0 µM, 25° C.
  KM/Vmax: 71.8 s⁻¹
[1]; GM [I]0 0.049 µM, 25° C.
  KM/Vmax: 90.4 s⁻¹
[1]; GM [I]0 0.098 µM, 25° C.
  KM/Vmax: 102.2 s⁻¹
[1]; GM [I]0 0.147 µM, 25° C.
  KM/Vmax: 150.1 s⁻¹
[1]; GM [I]0 0.196 µM, 25° C.
  KM/Vmax: 159.9 s⁻¹
[1]; GM [I]0 0.294 µM, 25° C.
  KM/Vmax: 188.0 s⁻¹
[1]; GM [I]0 0.049 mM, 25° C.
  Apparent Vmax: 1.05 mM/s
[1]; GM [I]0 0.098 mM, 25° C.
  Apparent Vmax: 1.18 mM/s
[1]; GM [I]0 0.147 mM, 25° C.
  Apparent Vmax: 1.21 mM/s
[1]; GM [I]0 0.196 mM, 25° C.
  Apparent Vmax: 1.23 mM/s
[1]; GM [I]0 0.294 mM, 25° C.
  Apparent Vmax: 1.14 mM/s
[1]; inhibitor Glycine Max, 25° C.
  Ki: 172 nM
Suc-AAPF-pNA; [4]
  Km: 212 µM
  kcat: 2.28 ± 0.36 s⁻¹
Suc-AAPF-pNA; [5]
  Km: 189 µM
  kcat: 12.13 s⁻¹
Suc-AAPF-pNA; [6]
  Km: 84.1 µM
  kcat: 21.54 s⁻¹
Suc-AAPF-pNA; [7]
  Km: 55.2 µM
  kcat: 26.67 s⁻¹
Suc-AAPF-pNA; [8]
  Km: 104 µM
  kcat: 29.49 s⁻¹
Suc-AAPF-pNA; [9]
  Km: 258 µM
  kcat: 27.69 s⁻¹
[2]
  activity maintained: complete activity loss
Aprotinin (AP); aprotinin [I]0 0 mM
  Apparent Vmax: 1.13 mM/s
  KM/Vmax: 76.3 s⁻¹
Aprotinin (AP); aprotinin [I]0 0.098 mM
  Apparent Vmax: 1.17 mM/s
  KM/Vmax: 149.2 s⁻¹
Aprotinin (AP); aprotinin [I]0 0.196 mM
  Apparent Vmax: 1.14 mM/s
  KM/Vmax: 242.8 s⁻¹
Aprotinin (AP); aprotinin [I]0 0.294 mM
  Apparent Vmax: 1.19 mM/s
  KM/Vmax: 314.3 s⁻¹
Aprotinin (AP); aprotinin [I]0 0.392 mM
  Apparent Vmax: 1.04 mM/s
  KM/Vmax: 431.6 s⁻¹
Aprotinin (AP); aprotinin [I]0 0.490 mM
  Apparent Vmax: 1.13 mM/s
  KM/Vmax: 569.45 s⁻¹
Aprotinin (AP); inhibitor aprotinin
  Ki: 56.3 nM
pepsin
  time after which all activity was lost: 75 min
[3]; pH 7.0, 40° C.
  half-life t1/2: 7.15 ± 0.91 h
[3]; pH 7.0, 40° C., listed as native enzyme
  half-life t1/2: 7.2 h
[3]; pH 7, 40° C., after 6 h
  initial activity retained: 50%
[3]; pH 8.0, 40° C.
  half-life t1/2: 1.95 ± 0.25 h
[3]; pH 9.0, 40° C.
  half-life t1/2: 1.53 ± 0.20 h
[3]; pH 9, 40° C., after 6 h
  biocatalytic activity lost: 70-80%
